Results from patent US20250197461A1, “Insect-derived short peptide for improving abscisic acid (ABA) content in cruciferous plant” (Gannan Normal University, priority 2023, published 2025).

What was measured:
[1] = molecular target: T1, zeaxanthin epoxidase aba1 (Arabidopsis thaliana, UniProt Q9FGC7); test: Yeast two-hybrid interaction of GSS1 and its variants with aba1; format: binding; conditions: Y2HGold yeast, TDO/QDO with x-α-gal
T1 construct: expressed in transfected cells; host or cells: Y2HGold yeast (Saccharomyces cerevisiae)
T1 sequence (Q9FGC7 60-667): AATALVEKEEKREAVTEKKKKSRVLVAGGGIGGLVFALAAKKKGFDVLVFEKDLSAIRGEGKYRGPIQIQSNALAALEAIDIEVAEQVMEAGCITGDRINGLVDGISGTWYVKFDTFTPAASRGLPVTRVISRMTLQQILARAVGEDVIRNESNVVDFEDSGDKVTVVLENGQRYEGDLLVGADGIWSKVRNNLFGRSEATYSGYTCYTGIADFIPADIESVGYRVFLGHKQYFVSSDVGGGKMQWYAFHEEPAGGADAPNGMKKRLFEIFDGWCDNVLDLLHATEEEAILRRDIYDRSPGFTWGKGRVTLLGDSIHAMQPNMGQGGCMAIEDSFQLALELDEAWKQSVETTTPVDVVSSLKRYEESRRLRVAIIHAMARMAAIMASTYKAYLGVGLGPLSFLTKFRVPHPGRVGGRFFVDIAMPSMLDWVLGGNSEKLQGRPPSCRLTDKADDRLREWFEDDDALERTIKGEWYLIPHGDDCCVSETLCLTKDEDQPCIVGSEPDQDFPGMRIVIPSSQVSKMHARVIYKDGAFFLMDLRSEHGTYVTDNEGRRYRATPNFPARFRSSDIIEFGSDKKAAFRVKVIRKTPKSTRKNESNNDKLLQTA
Source text: A Y2HGold yeast transformant containing the correct pGBKT7-GSS1 bait plasmid was used as a recipient strain to prepare competent cells, and a library plasmid extracted from the yeast library was transferred into the competent cells, and coated on the SD-Trp-Leu-His+5 mM3AT plate. […]

[2] = test system: Plutella xylostella larvae; test: Plutella xylostella larvae fed on Arabidopsis thaliana treated with short peptide; format: in vivo; conditions: third-instar larvae fed on treated Arabidopsis thaliana for 3 days
Source text: (5) Biological Experimental Observation after GSS-PI Short Peptide Treatment with Arabidopsis thaliana. • 1) 60 newly molted third-instar larvae fed on artificial feed were divided into 3 groups, and 20 larvae in each group were fed on Arabidopsis thaliana plants treated with GSS-P1 short peptide or GFP control short peptide; • 2) In order to prevent plants from being damaged mechanically or influenced by external factors, a simple interactive biological observation device for insect-plant interaction was used to eliminate potential interference factors; • 3) After 3 days, the simple interactive biological observation device was opened, and the number of larvae (4th instar larvae) was observed and counted, the number of larvae surviving was recorded, and divided by the initial number of 20 larvae to obtain the daily survival rate of larvae.

## PDYKQKLRDSKAWESLETIGIPLDADVM (insect-derived short peptide) [GSS1-PI]
[1]
  interaction with aba1 (yeast two-hybrid): interacted with aba1
[2]
  mortality rate of larvae: about 70%
